Results as given in patent publication US20220332804A1 (CSL INNOVATION, published 2022).
Numbering of substitutions follows the chain as printed.

Columns and labels:
Test in all cases: SPR, KD relative to WT C2;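 further: biacore SPR at 37 °C, anti-C2 mAbs captured via immobilised goat anti-human IgG, C2 alanine or serine surface mutants as analytes, 1:1 model fitted, double-referenced sensograms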
human C2 N268A = target: T1, human C2 N268A (human, UniProt P06681 21-752)
T1 sequence: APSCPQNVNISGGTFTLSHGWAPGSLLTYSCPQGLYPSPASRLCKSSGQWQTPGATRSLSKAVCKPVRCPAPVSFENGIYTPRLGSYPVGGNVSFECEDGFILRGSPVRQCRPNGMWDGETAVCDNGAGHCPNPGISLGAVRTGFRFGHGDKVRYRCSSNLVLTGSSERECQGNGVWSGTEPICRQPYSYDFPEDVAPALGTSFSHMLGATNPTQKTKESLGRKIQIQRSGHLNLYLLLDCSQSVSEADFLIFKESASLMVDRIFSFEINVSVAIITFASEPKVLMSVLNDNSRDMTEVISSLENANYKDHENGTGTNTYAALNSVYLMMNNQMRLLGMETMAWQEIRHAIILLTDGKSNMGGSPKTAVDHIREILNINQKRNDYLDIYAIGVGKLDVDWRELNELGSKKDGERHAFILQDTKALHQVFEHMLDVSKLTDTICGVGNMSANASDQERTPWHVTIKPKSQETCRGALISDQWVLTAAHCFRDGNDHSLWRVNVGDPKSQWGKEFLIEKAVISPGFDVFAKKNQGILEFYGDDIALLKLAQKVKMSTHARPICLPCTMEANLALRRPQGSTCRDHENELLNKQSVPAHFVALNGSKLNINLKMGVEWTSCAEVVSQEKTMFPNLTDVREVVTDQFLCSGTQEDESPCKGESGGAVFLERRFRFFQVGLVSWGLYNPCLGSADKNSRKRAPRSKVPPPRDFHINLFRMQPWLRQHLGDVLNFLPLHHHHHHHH
Experimental: (§1) Surface plasmon resonance (SPR, Biacore) was used for all binding affinity analyses. In brief, goat anti-human IgG was directly immobilised onto the carboxymethyl dextran surface of CM5 sensorchips to approximately 12,000 RU using standard NHS/EDC chemistry at pH 5. The immobilised antibody surface was pre-conditioned with ten injections of polyclonal human IgG (Privigen 60 s) prepared at 1 μg/mL. Ligands (anti-C2 mAbs) were captured at the beginning of each cycle as described below. An adjacent spot or flow cell in which only Polyclonal IgG was capture was used as a reference surface. The goat anti-human IgG Fc antibody surface was regenerate in 100 mM H3PO4, injected for 45 seconds at the end of each cycle. Experiments were performed at 37° C. and the flow rate of each experiment was kept constant at 30 μL/min.
(§2) Sensogram data was double-referenced against a reference anti-IgG surface (i.e. minus anti-C2 mAb) and blank buffer injections obtained within each experiment. The binding data was fit to 1:1 (kinetic or steady-state) model using local Rmax and null refraction index (RI=0) when appropriate. Buffers and solutions were filtered (0.22 μm) prior to use.

human C2 T491A = target: T2, human C2 T491A (human, UniProt P06681 21-752)
T2 sequence: T1 sequence with A248N, T471A
Experimental: as §1, §2

human C2 M452A = target: T3, human C2 M452A (human, UniProt P06681 21-752)
T3 sequence: T1 sequence with A248N, M432A
Experimental: as §1, §2

human C2 M648A = target: T4, human C2 M648A (human, UniProt P06681 21-752)
T4 sequence: T1 sequence with A248N, M628A
Experimental: as §1, §2

B1: RF16-226 (antibody, human IgG4 S228P, lambda)
heavy: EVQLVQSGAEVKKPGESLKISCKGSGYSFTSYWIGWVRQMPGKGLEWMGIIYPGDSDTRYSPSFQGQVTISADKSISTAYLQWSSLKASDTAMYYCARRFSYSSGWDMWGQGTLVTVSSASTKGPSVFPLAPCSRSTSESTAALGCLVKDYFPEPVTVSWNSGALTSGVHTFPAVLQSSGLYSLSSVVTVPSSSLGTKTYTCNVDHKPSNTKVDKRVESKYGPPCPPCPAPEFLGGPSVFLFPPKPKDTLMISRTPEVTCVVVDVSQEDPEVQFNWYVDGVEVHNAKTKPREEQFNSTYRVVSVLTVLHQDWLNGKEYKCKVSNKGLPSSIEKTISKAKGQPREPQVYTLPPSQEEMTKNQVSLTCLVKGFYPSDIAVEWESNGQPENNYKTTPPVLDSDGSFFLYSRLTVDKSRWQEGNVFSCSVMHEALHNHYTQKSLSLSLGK
light: SYELTQPPSVSVSPGQTARITCSGDALTSKYVAWYQQKSGLAPLLVIYEDTRRPSGIPAKFSGSSSGSVATLTISGAHGDDEADYYCYSTDASGHQRVFGGGTKLTVLSQPKAAPSVTLFPPSSEELQANKATLVCLISDFYPGAVTVAWKADGSPVKAGVETTKPSKQSNNKYAASSYLSLTPEQWKSHRSYSCQVTHEGSTVEKTVAPTECS
notes: pH-dependent anti-C2 antibody from a phage display library; also called WT
- Fold diff (human C2 N268A): 1 fold
- Fold diff (human C2 T491A): 2 fold
- Fold diff (human C2 M452A): 0 fold
- Fold diff (human C2 M648A): 20 fold
